The text below walks through data of article PMC4401446.

What all share (assay): SEC; protein at 500 ug/mL incubated 3 hours at 30°C, then Superdex 75 in 50 mM Tris-HCl pH 8.0, 150 mM NaCl, 5% (v/v) glycerol, calibrated with molecular mass standards; dimer to monomers
(SEC sorts molecules by how far they enter the pores of the column.)

The target in assay [1] is human triosephosphate isomerase N15D/N71D double mutant (human).
Assay [2] concerns the target human triosephosphate isomerase N15D mutant (human).
For assay [3], the target named is human triosephosphate isomerase N71D mutant (human).

As a reminder, the stoichiometry N is a count of units in the complex or per binding partner.

For “human triosephosphate isomerase N15D/N71D double mutant (enzyme)”, the stoichiometry N in assay [1] worked out at 2.

The substance “human triosephosphate isomerase N15D mutant (enzyme)” gave a stoichiometry N in assay [2] of 2.

As to “human triosephosphate isomerase N71D mutant (enzyme)”, in assay [3], the stoichiometry N was determined as 2.
